The source of these data is publication PMC11379828.

One data set deals with T1, MBP-EFD (1-260 aa) (Arabidopsis thaliana, UniProt Q9M389 1-260).
T1 sequence: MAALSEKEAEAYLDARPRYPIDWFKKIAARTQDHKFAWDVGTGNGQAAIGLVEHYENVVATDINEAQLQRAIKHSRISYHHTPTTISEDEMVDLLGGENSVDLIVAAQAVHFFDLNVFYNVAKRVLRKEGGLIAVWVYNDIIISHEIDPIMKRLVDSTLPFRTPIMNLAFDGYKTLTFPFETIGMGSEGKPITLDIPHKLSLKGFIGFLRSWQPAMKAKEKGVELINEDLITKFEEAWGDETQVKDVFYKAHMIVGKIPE
In words: EMSA. Background: In EMSA bound probe runs differently from free probe, usually more slowly.

In a further data set the target is T2, MBP-EFD (Arabidopsis thaliana, UniProt Q9M389 1-323).
T2 sequence: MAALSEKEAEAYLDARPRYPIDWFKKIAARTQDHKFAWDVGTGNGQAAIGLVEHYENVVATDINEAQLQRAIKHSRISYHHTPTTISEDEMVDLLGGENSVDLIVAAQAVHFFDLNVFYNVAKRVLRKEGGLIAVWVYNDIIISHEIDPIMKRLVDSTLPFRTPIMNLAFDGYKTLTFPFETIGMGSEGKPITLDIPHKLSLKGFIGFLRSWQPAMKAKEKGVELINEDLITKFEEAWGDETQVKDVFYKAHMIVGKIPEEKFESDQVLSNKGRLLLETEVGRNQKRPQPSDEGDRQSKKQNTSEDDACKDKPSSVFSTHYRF
Briefly: EMSA.

B1: HB21 probe, unmethylated (HB21+1410) (dsDNA)
DNA 1: ATCCTCTGTGACCATTGAAGCCAATCATACGACACCGTTTTTTGGAGATTACGACATCGGATTTGACGGTGAGGCTGACGAG
DNA 2: CTCGTCAGCCTCACCGTCAAATCCGATGTCGTAATCTCCAAAAAACGGTGTCGTATGATTGGCTTCAATGGTCACAGAGGAT
B1: the binding result with MBP-EFD (1-260 aa) and with MBP-EFD was “binds” in each case.

B2: HB21 probe, methylated (HB21+1410) (dsDNA)
DNA 1: ATCCTCTGTGACCATTGAAGCCAATCATACGACACCGTTTTTTGGAGATTACGACATCGGATTTGACGGTGAGGCTGACGAG
DNA 2: CTCGTCAGCCTCACCGTCAAATCCGATGTCGTAATCTCCAAAAAACGGTGTCGTATGATTGGCTTCAATGGTCACAGAGGAT
modifications: 5-methylcytosine, positions not given
In the case of B2, the binding result with MBP-EFD (1-260 aa) was “binds”.
